# Test results as given in patent US20220033493A1.
# Legend:
# [1] = biological target: CaVβ2b with N-terminal deca-histidine tag (purified from E. coli); assay: isothermal titration calorimetry, purified proteins, 25 °C
# [2] = biological target: CaVβ2b with N-terminal deca-histidine tag (purified from E. coli); assay: isothermal titration calorimetry, nb.F3 injected into CaVβ2b, T=298K
# [3] = biological target: CaVβ2b with N-terminal deca-histidine tag (purified from E. coli); assay: isothermal titration calorimetry, purified proteins, 25 °C, nb.F3 injected into CaVβ2b
binder,measurement,setting,value
nb.F3 with N-terminal deca-histidine tag (purified from E. coli) (VHH) VHH: QVQLQESGGGLVQAGGSLRLSCVASGRTFSSYAMGWFRQAPGKEREFVAAIDWSGGTASHADSVKGRFTISRDNAKNTVYLQMNSLKPEDTAVYYCAASSYWSRSVDEYDYWGQGTQVTVSS,stoichiometry,[1],1
same,Ka,[2],1.07e+08 M⁻¹
same,N (stoichiometry),[2],0.93
same,ΔH,[2],-14.9 kcal/mol
same,ΔS (cal mol-1 K-1),[2],-13.8
same,Kd,[3],13.2 nM
